Common to all, as to experiment: fluorescence polarisation
For orientation: In fluorescence polarisation assays a small probe gives low polarisation when free and higher when bound to something large.

The target in assay [1] is FAM-GGFLRRI, N-terminally FAM-labeled Dyn A (2–8).
For assay [2], the target named is FAM-…, N-terminally FAM-labeled Dyn A (2–13).
The target of assay [3] is FAM-…, N-terminally FAM-labeled Dyn A (2–17).

As usually defined, the Kd is a measure of binding affinity in units of concentration.

“rNln (Met37–Ser704) E475A, C-terminal 6xHis-tag, catalytically inactive mutant (from UniProt P42676 37-704) (enzyme)”: the Kd in assay [1] stood at 23.7 µM; in assay [2], 4.69 µM; in assay [3], 3.26 µM.

Source of the values: article PMC11310207.
